Literature values as cited in article PMC8027070.
Like-named read-outs stand apart in the source and are kept apart here. One block for each substance: values may come before it.

Columns and labels:
[1] = target: VIP (Homo sapiens) (UniProt P01282)
[2] = target: PACAP (Homo sapiens) (UniProt P18509)
[3] = target: VIP (Homo sapiens) (UniProt P01282); remark: listed apart in the source
[4] = target: PACAP (Homo sapiens) (UniProt P18509); remark: listed apart in the source
[5] = target: VIP (Homo sapiens) (UniProt P01282); remark: listed apart in the source
[6] = target: PACAP (Homo sapiens) (UniProt P18509); remark: listed apart in the source

Sequence of UniProt P01282 (P01282 125-152): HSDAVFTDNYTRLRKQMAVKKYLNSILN
Sequence of UniProt P18509 (P18509 82-129): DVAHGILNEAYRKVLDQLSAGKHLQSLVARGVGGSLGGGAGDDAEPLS

Kd [1]: 1 nM
Kd [2]: 1 nM
Substance: VPAC1 receptor (from UniProt P32241)

Kd [3]: 1 nM
Kd [4]: 1 nM
Substance: VPAC2 receptor (from UniProt P41587)

Kd [5]: > 500 nM
Kd [6]: 0.5 nM
Substance: PAC1 receptor (from UniProt P41586)
